Measured values from patent publication US20260069656A1, “Nutritive Polypeptides and Formulations Thereof, and Methods of Production and Use Thereof” (Axcella Health Inc., priority 2013, published 2026).
Residue numbers refer to the chain shown, from its start.

B1: SEQID-00622: protein of the 168 nutritive polypeptide library (protein, listed as Oryza sativa)
chain: MASEGAVSPAFAYTVVYVKDVAKSAAFYSAAFGYTVRRLDQSHKWAELESGTTTIAFTPLHQRETDALTGAVQLPDSAGERGPVEICFDYADVDAAYRRAVDSGAVPVSPPEQKSWGQKVGYVRDIDGIIVRMGSHVRA
modifications: subsp. japonica
notes: protein of the 168 nutritive polypeptide library
B2: SEQID-00100: nutritive polypeptide (protein, listed as Lactobacillus acidophilus)
chain: MSEEEIFNKIKDLIADNFEVDKDSITENTNFMNDLDADSIDLVEFILQLEDEFGAEIPDDEAEKIKTVGDAVSYIKSHQG
B3: SEQID-00098: nutritive polypeptide (protein, listed as Lactococcus lactis)
chain: MAVFEKVQDIIVDELGKEKEEVTLETSFEELDADSLDLFQIINDIEDEFDVEVDTEADMKTVADLVKYVENNK
B4: SEQID-00305: nutritive polypeptide (protein, listed as Bos taurus)
chain: MPHQYPALTPEQKKELCDIAHRIVAPGKGILAADESTGSIAKRLQSIGTENTEENRRFYRQLLLTADDRVNPCIGGVILFHETLYQKADDGRPFPQVIKAKGGVVGIKVDKGVVPLAGTNGETTTQGLDGLSERCAQYKKDGADFAKWRCVLKIGEHTPSSLAIMENANVLARYASICQQNGIVPIVEPEILPDGDHDLKRCQYVTEKVLAAVYKALSDHHIYLEGTLLKPNMVTPGHACTQKYSHEEIAMATVTALRRTVPPAVPGITFLSGGQSEEEASINLNAINKCPLLKPWALTFSYGRALQASALKAWGGKKENLKAAQEEYVKRALANSLACQGKYTPSGKAGAAASESLFISNHAY
B5: SEQID-00102: nutritive polypeptide (protein, listed as Lactobacillus johnsonii)
chain: MTEEEIFNKIADMISERFSIDRDKITKDLNFQNDLDADSIDFVELVMDLEDTFGAEIPDDDAEKLQTVGEAVEYIKSHQN
B6: SEQID-00302: nutritive polypeptide (protein)
chain: MAKKTVANLSASELSGKKVLVRADFNVPLDNGSISDDTRIRAALPTIQDLTSKGAKVILSSHFGRPQGQVVESMRLTPVAARLSELLGKTVKKCDDCIGEEVAVAVGAMSDGDVLLLENVRFHAAEEKNDPEFAKQLASVADLYVNDAFGTAHRAHASTEGVTKYLSPCVAGYLIEKELQFLQGAIESPQRPLAAIIGGSKVSSKIGVIEALLDKCDKLLLGGGMIFTFYKARGLSVGNSLVEEDKLELAKSLEAKAKEKGVTMLLPTDVVLADKFAADADSQTVSVEAIPDGWMGLDIGPDSVKVFQEALGDCKTVLWNGPMGVFEFEKFAAGTRAIAQTLAELTSTGTTTIIGGGDSVAAVEQLNLGEKMSHISTGGGASLELLEGKQLPGIVALDDA
modifications: Arthrospira platensis C1
notes: nutritive polypeptide
B7: SEQID-00099: nutritive polypeptide (protein, listed as Thermosynechococcus elongatus)
chain: MNQSEILEKVKAIVADQLSVDPEKVVPEASFAEDLNADSLDSVELIMALEEEFGVEIPDEEAEKLKTVQDVLDFINNKVAA
B8: SEQID-00241: nutritive polypeptide (protein, listed as Bos taurus)
chain: SELKKDIDDLELTLAKVEKEKHATENKVKNLTEEMAGLDETIAKLTKEKKALQEAHQQTLDDLQAEEDKVNTLTKAKTKLEQQVDDLEGSLEQEKKLRMDLERAKRKLEGDLKLA
B9: SEQID-00226: nutritive polypeptide (protein, listed as Bos taurus)
chain: QLQALQAQLTDTKKKVDDDLGTIENLEEAKKKLLKDVEVLSQRLEEKALAYDKLEKTKTRLQQELDDLLVDLDHQRQIVSNLEKKQKKFDQLLAEEKNIS
B10: SEQID-00220: nutritive polypeptide (protein, listed as Bos taurus)
chain: DTKKKVDDDLGTIENLEEAKKKLLKDVEVLSQRLEEKALAYDKLEKTKTRLQQELDDLLVDLDHQ
B11: SEQID-00269: nutritive polypeptide (protein)
chain: B10 chain with T2L, V6L, I13L, A19L, V27L, V29L, K37L, V60L
B12: SEQID-00598: nutritive polypeptide naturally produced in Flaxseed, recombinantly expressed in E. coli (protein, listed as Linum usitatissimum)
chain: MSRRCPGKNAWPELVGKSGNMAAATVERENRNVHAIVLKEGSAMTKDFRCDRVWVIVNDHGVVTSVPHIT
B13: SEQID-00236: nutritive polypeptide (protein, listed as Bos taurus)
chain: ALQEAHQQTLDDLQAEEDKVNTLTKAKTKLEQQVDDLEGSLEQEKKLRMDLERAKRKLEGDLKLA
B14: SEQID-00115: nutritive polypeptide (protein, listed as Sus scrofa)
chain: EDEDDKTVSDLAVVLFETATLRSGYLLPDTKAYGDRIERMLRLSLNIDPDAKVEEEPEEEPEETTEDTTEDTEQDDDEEMDAGADEEEQETSETSTAEKDE
B15: SEQID-00510: nutritive polypeptide naturally produced in Turkey, recombinantly expressed in E. coli (protein)
chain: MVPIAEKMAEKQEEPSNTQNGEPDNAEEGEGKKKKKVKREDLPPFEIVTGERLPAIFFKFQFRNVEYSSGRNKTFLCYVVETQGKESTTSRGYLEDEHAASHAEIAFFNTILPKCESSLRYNITWYVSSSPCVTCADRISETLRKNKNLRLTIMVGRLFMWEEPEMQAALKKMKSAGCKLRIMKPQDFEYVWQNFVEQEEGEEAKAFVPWEDIQENFQYYEEKLAEILQ
modifications: Meleagris gallopavo
notes: nutritive polypeptide naturally produced in Turkey, recombinantly expressed in E. coli
B16: SEQID-00287: nutritive polypeptide (protein, listed as Saccharomyces cerevisiae)
chain: LVLGALLDTSHKFRNLDKDLCEKCAKCISMIGVLDVTKHEFKRTTYSENEVYDLNDSVQTIKFLIWVINDILV
modifications: strain ATCC 204508 / S288c
notes: nutritive polypeptide

Experiment: Thermostability, ProteoStat Thermal Shift Stability Kit, temperature of aggregation
Format: physicochemical
Settings: pH 2.8; NS = protein not soluble
Method: Thermostability. The thermostability of proteins in a buffer cocktail of Citric Acid and Dibasic Sodium Phosphate over a pH range of 2.8 to 7.1 (preparation described above in Table E31B) was determined using the ProteoStat® Thermal Shift Stability Kit (Enzo Life Sciences) according to the manufacturer's standard protocol. Briefly, protein solutions (˜10 mg/ml) containing 1× ProteoStat TS Detection Reagent were heated from 25° C. to 95° C. at a rate of 0.5° C. per 30 sec using a real-time PCR (rtPCR) thermocycler (BioRad) equipped with a plate reader (SynergyMx, Biotek) while monitoring the fluorescence with a Texas Red filter.

Going from B1 to B2, the “Tagg pH 2.8” value rises from 58.5 to 95.

Same assay, conditions: pH 3.7; NS = protein not soluble

Going from B1 to B2, the “Tagg pH 3.7” value rises from 42 to 95.

Same assay, conditions: pH 3.9; NS = protein not soluble

Going from B1 to B2, the “Tagg pH 3.9” value rises from 42 to 95.

Same assay, conditions: pH 4.3; NS = protein not soluble

Going from B1 to B2, the “Tagg pH 4.3” value rises from 43.5 to 83.

Same assay, conditions: pH 4.6; NS = protein not soluble

First: B1
Second: B2
The “Tagg pH 4.6” value of the first is lower: 43.5 for the first, 84 for the second.

Same assay, conditions: pH 5.0; NS = protein not soluble

Compared with B1, B2 is higher in “Tagg pH 5.0” value: 42.5 for the first, 95 for the second.

Same assay, conditions: pH 5.6; NS = protein not soluble

Compared with B1, B2 is higher in “Tagg pH 5.6” value: 45.5 for the first, 95 for the second.

Same assay, conditions: pH 6.0; NS = protein not soluble

Compared with B1, B2 is higher in “Tagg pH 6.0” value: 46 for the first, 95 for the second.

Same assay, conditions: pH 6.5; NS = protein not soluble

Compared with B1, B2 is higher in “Tagg pH 6.5” value: 47 for the first, 95 for the second.

Same assay, conditions: pH 7.1; heated 25° C. to 95° C.; NS = protein not soluble

In the case of B1, the “Tagg (pH 7.1)” value is reported as 95.

For B2, the “Tagg (pH 7.1)” value was greater than 95.
For B3, the “Tagg (pH 7.1)” value was greater than 95.

Same assay, conditions: pH 7.1; heated from 25° C. to 95° C.

Compared with B4, B6 is lower in “Tagg (pH 7.1)” value: 48 for the first, 46 for the second.

For B7, the “Tagg (pH 7.1)” value was 64.

In the case of B5, the “Tagg (pH 7.1)” value is reported as greater than 95.
For B8, the “Tagg (pH 7.1)” value was greater than 95.
For B9, the “Tagg (pH 7.1)” value was greater than 95.
In the case of B10, the “Tagg (pH 7.1)” value is reported as greater than 95.
In the case of B11, the “Tagg (pH 7.1)” value is reported as greater than 95.

Experiment: Solubility of proteins (lyophilized/reconstituted or ultrafiltered)
Settings: produced in E. coli unless otherwise noted

B12 and B5 are within 1.5-fold of each other in “Solubility” value: 150 mg/mL for the first, 120 mg/mL for the second.

B13 and B14 are within 1.5-fold of each other in “Solubility” value: 60 mg/mL for the first, 70 mg/mL for the second.

For B7, the “Solubility” value was 91 mg/mL.

Experiment: pH solubility screen in Citric Acid / Dibasic Sodium Phosphate buffers
Format: physicochemical
Settings: lower pH of range
Method: pH Solubility. […] Protein was either lyophilized and then resuspended in buffer cocktail mixtures, or concentrated and then spiked into buffer cocktail mixtures at a final protein concentration of 5 to 30 mg/ml. As a control, protein was also dissolved in a solution of 8 M urea. Protein solutions were shaken for 10 min at room temperature. Turbidity of proteins was determined by measuring the absorbance of protein solutions at 650 nm. The protein solution was then centrifuged for 10 min at 1100×g to pellet undissolved or precipitated protein. The soluble protein fraction (supernatant) was sampled and protein concentration was measured by one or more of the following methods: Coomassie Plus Protein Assay (Pierce), Chip electrophoresis, gel electrophoresis, and/or absorbance at 280 nm. The pH range over which select proteins remained greater than 80% soluble as determined by Bradford and the A650 value are listed in Table E31C.

First: B1
Second: B2
The “pH Range where Protein is >80% detected as Soluble and A650 <1 OD: Low” value (“pH Range where Protein is >80% detected … Low” below) of the first is lower: 2.8 for the first, 4.3 for the second.

Going from B15 to B8, the “pH Range where Protein is >80% detected … Low” value falls from 6.5 to 4.3.

Compared with B16, B9 is lower in “pH Range where Protein is >80% detected … Low” value: 6.2 for the first, 2.6 for the second.

For B11, the “pH Range where Protein is >80% detected … Low” value was 7.2.

Same assay, conditions: other pH where soluble

Going from B15 to B16, the “pH Range where Protein is >80% detected as Soluble and A650 <1 OD: Other” value falls from 2.8 to 2.6.

Same assay, conditions: upper pH of range

B1 and B2 are the same in “pH Range where Protein is >80% detected as Soluble and A650 <1 OD: High” value (“pH Range where Protein is >80% detected … High” for short): 7.1 for the first, 7.1 for the second.

First: B15
Second: B8
The “pH Range where Protein is >80% detected … High” value of the first is lower: 7.1 for the first, 9.1 for the second.

B16 and B9 are the same in “pH Range where Protein is >80% detected … High” value: 9.1 for the first, 9.1 for the second.

For B11, the “pH Range where Protein is >80% detected … High” value was 9.1.

Experiment: Intact half-life during simulated gastric fluid (SGF) digestion
Settings: SGF pH 1.5, pepsin:polypeptide 1:20 w/w, 37° C.; produced in E. coli unless otherwise noted
Method: Nutritive polypeptide half-life during simulated digestion. One metric for quantifying the breakdown of polypeptides from an intact form to smaller peptides is the intact half-life. In this experiment the nutritive polypeptide was exposed to a series of proteases that are active in the stomach (pepsin) and intestine (trypsin and chymotrypsin), and the presence of intact protein was measured over time. Specifically, the nutritive polypeptide was first treated at a concentration of 2 g/L with simulated gastric fluid (SGF) (0.03 M NaCl, titrated with HCl to pH 1.5 with a final pepsin: polypeptide ratio of 1:20 w/w) at 37° C. Time points were sampled from the reaction and quenched by addition of 0.2 M Na2CO3. […] Time points were sampled from the reaction and quenched by addition of Trypsin/Chymotrypsin Inhibitor (Sigma) solution until 240 min.
Time point samples were analyzed for intact protein by chip electrophoresis, polyacrylamide gel electrophoresis, or western blot. For chip electrophoresis (Labchip GX II), samples were analyzed using a HT Low MW Protein Express LabChip® Kit (following the manufacturer's protocol). A protein ladder was loaded every 12 samples for molecular weight determination (kDa) and quantification. For polyacrylamide gel electrophoresis, samples (1 μg) were separated on a NuPAGE® Novex® Bis-Tris Precast gel (Life Technologies) according to the manufacturer's protocol. The gel was stained using SimplyBlue™ SafeStain (Invitrogen) and imaged using a Chemidoc XRS+ (BioRad) or transferred onto nitrocellulose membranes using the iBlot® Dry Blotting System (Life Technologies) and iBlot® Western Detection Kit (Life Technologies) according to the manufacturer's protocol. Proteins were detected by blotting with Anti-His [C-term]-HRP antibody diluted 3:5000 in Blok™-PO Blocking Buffer using the SNAP i.d.® Protein Detection System (Millipore) according to the manufacturer's protocol. Blots were treated with Luminata Classico Western HRP Substrate (Millipore) according to the manufacturer's protocol and imaged using chemiluminescent detection on the Molecular Imager® Gel Doc™ XR+ System (Bio-Rad). Quantification of intact protein was determined by densitometry using ImageLab (BioRad). For all analysis methods the relative concentration of the polypeptide at each time point (if detected) was plotted overtime and fit to an exponential curve to calculate the intact half-life.
Specifically, the t=0 (enzyme-free control) and t=2 min samples from the SGF digest were analyzed for intact protein as described by chip electrophoresis, SDS-PAGE, western blot, and/or LC-MS/MS. Relative quantities of polypeptides at each time point were determined and the percentage of intact protein remaining at t=2 was determined.

Going from B1 to B4, the “SGF Half-life (t½)” value falls from 396 s to 12 s.

First: B12
Second: B2
The “SGF Half-life (t½)” value of the first is lower: 30 s for the first, 120 s for the second.

Going from B15 to B5, the “SGF Half-life (t½)” value rises from 18 s to 36 s.

First: B6
Second: B13
The “SGF Half-life (t½)” value of the first is lower: 12 s for the first, 600 s for the second.

First: B7
Second: B8
The “SGF Half-life (t½)” value of the first is higher: 60 s for the first, 18 s for the second.

First: B16
Second: B9
The “SGF Half-life (t½)” value of the first is higher: 180 s for the first, 42 s for the second.

Compared with B3, B10 is higher in “SGF Half-life (t½)” value: 24 s for the first, 30 s for the second.

With B11 the “SGF Half-life (t½)” value was 2460 s.

Same assay, conditions: purified proteins, chip electrophoresis, SGF

Going from B1 to B12, the “Half-life” value falls from 396 s to 30 s.

In the case of B15, the “Half-life” value is reported as 18 s.
